The results in this text go back to patent publication US20100144847A1.

For the experiment, the target named is tropomyosin. The experiment can be described thus: cell-based or functional assay.

As to GFP-CKIIα (from UniProt Q60737 1-391), the colony formation inhibition assay, A9 cells under G418 selection was greater than 2000 colonies.
